For 1 substance, intercept of the linear regression of 1/Binding RU against 1/[TβRII] and Kd results are on record in US20110165623A1.

Experiment [1] has as its target purified recombinant mature TGFβ1 (expressed in CHO cells from the modified porcine TGFβ1 cDNA) (porcine) (UniProt P07200). The experiment in a line: surface plasmon resonance, steady state response, double reciprocal plot; x axis printed as 1/[TβRII] (µM-1), y axis 1/Binding RU.
Experiment [2] shares this target. The experiment can be described thus: SPR (BIAcore 3000); TGFβ1 immobilised on a CM5 chip, TβRII 150 nM to 0.6 nM as analyte; steady state, linear regression of 1/Response versus 1/C; TGFβ1 immobilised on the chip, TβRII as analyte; steady state.

Sequence of UniProt P07200 (P07200 279-390): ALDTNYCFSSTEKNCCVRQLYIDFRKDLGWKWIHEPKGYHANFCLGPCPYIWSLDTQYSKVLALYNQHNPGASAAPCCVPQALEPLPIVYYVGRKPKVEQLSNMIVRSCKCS

As to “TGFβ1 type II receptor (residues 22-136), refolded from inclusion bodies (from UniProt P37173 45-159)”, the intercept of the linear regression of 1/Binding RU against 1/[TβRII] in experiment [1] is 0.00102. In addition, the Kd in experiment [2] stood at 55 nM.
